Experimental data: US20240116985A1 (published 2024)
Starred links: 1 amine or outer side, 2 acyl side, 3 side chain; linkers in the order of their positions; H or OH if unused. Positions of bridges follow the written chain, without caps; N, C: chain ends. Non-standard residues stand in square brackets, D forms with d. Primed or numbered codes have the meaning given here. *: point of attachment. PyrS2(3) = (S)-3-amino-1-((pent-4-en-1-yloxy)carbonyl)pyrrolidine-3-carboxylic acid, stapling residue, C=CCCCOC(=O)N1CC[C@@](N[*:1])(C(=O)[*:2])C1; B5(18) = 2,2-bis(4-pentenyl)glycine (2-amino-2-(pent-4-en-1-yl)hept-6-enoic acid), stitching residue, C=CCCCC(CCCC=C)(N[*:1])C(=O)[*:2]; B5(4) = 2,2-bis(4-pentenyl)glycine = 2-amino-2-(pent-4-en-1-yl)hept-6-enoic acid (stitching residue), C=CCCCC(CCCC=C)(N[*:1])C(=O)[*:2]; TfeGA = (S)-2-amino-3-((carboxymethyl)(2,2,2-trifluoroethyl)amino)propanoic acid, O=C([C@H](CN(CC(=O)[*:3])CC(F)(F)F)N[*:1])[*:2]; PyrS2 = (S)-3-amino-1-((pent-4-en-1-yloxy)carbonyl)pyrrolidine-3-carboxylic acid, C=CCCCOC(=O)N1CC[C@@](N[*:1])(C(=O)[*:2])C1; 2COOH4NO2Ph = 2-carboxy-4-nitrophenyl group on the side chain (attached at Dap N or Cys S), O=C(O)c1cc([N+](=O)[O-])ccc1*; HypEs5 = (2R,4S)-4-(pent-4-enoyloxy)pyrrolidine-2-carboxylic acid, C=CCCC(=O)O[C@H]1C[C@H](C(=O)[*:2])N([*:1])C1; GAbu = (S)-2-amino-4-((carboxymethyl)amino)butanoic acid, O=C([C@H](CCNCC(=O)[*:3])N[*:1])[*:2]; TriAzDap = Dap whose side chain is a 1H-1,2,3-triazol-1-yl bearing the bracketed 4-substituent; B5(3) = 2,2-bis(4-pentenyl)glycine (stitching residue), C=CCCCC(CCCC=C)(N[*:1])C(=O)[*:2]; B5″ = 2,2-bis(4-pentenyl)glycine, stitching residue, C=CCCCC(CCCC=C)(N[*:1])C(=O)[*:2]; B5(28) = 2,2-bis(4-pentenyl)glycine, C=CCCCC(CCCC=C)(N[*:1])C(=O)[*:2]; Phe(3-COOH) = N[C@@H](Cc1cccc(C(=O)O)c1)C(=O)O; Phe(2-Cl) = N[C@@H](Cc1ccccc1Cl)C(=O)O; Bta = N[C@@H](Cc1csc2ccccc12)C(=O)O; αAllylPro = C=CC[C@@]1(C(=O)O)CCCN1; tBuAla = CC(C)(C)C[C@H](N)C(=O)O; 3Thi = N[C@@H](Cc1ccsc1)C(=O)O; S8 = C=CCCCCCC[C@](C)(N)C(=O)O; NMeS = CN[C@@H](CO)C(=O)O; Dap = NC[C@H](N)C(=O)O

T1: B-cat-Halo (beta-catenin HaloTag construct expressed in HEK293 cells) (UniProt P35222 1-781)
T1 sequence (looked up): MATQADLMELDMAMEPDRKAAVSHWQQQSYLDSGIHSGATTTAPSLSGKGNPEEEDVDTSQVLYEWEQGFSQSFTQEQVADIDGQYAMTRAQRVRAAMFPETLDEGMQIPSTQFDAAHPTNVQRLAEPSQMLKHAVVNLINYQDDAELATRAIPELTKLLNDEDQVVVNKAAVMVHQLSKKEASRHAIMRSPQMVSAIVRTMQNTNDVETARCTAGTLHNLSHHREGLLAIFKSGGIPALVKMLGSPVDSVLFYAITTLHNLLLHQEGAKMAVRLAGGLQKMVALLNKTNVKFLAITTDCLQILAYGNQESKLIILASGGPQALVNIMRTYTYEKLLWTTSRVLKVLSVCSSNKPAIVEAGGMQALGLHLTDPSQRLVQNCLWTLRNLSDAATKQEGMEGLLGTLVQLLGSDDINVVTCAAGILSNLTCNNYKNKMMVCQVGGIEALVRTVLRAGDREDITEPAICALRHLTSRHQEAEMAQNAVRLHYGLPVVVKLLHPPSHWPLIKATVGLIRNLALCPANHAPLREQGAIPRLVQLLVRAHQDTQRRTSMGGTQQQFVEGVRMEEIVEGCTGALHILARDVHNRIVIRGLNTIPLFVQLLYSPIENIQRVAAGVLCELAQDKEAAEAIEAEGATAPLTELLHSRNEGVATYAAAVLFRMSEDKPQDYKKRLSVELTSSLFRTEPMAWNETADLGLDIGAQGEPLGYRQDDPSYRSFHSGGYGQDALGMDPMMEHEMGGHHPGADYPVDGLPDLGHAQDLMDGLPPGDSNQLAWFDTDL

T2: full-length beta-Catenin (Uniprot ID P35222) (Homo sapiens (Human), UniProt P35222 2-781)
T2 construct: Also used here for the endogenous beta-catenin of the DLD1 TCF reporter cells; also called bCat; B-Catenin
T2 sequence: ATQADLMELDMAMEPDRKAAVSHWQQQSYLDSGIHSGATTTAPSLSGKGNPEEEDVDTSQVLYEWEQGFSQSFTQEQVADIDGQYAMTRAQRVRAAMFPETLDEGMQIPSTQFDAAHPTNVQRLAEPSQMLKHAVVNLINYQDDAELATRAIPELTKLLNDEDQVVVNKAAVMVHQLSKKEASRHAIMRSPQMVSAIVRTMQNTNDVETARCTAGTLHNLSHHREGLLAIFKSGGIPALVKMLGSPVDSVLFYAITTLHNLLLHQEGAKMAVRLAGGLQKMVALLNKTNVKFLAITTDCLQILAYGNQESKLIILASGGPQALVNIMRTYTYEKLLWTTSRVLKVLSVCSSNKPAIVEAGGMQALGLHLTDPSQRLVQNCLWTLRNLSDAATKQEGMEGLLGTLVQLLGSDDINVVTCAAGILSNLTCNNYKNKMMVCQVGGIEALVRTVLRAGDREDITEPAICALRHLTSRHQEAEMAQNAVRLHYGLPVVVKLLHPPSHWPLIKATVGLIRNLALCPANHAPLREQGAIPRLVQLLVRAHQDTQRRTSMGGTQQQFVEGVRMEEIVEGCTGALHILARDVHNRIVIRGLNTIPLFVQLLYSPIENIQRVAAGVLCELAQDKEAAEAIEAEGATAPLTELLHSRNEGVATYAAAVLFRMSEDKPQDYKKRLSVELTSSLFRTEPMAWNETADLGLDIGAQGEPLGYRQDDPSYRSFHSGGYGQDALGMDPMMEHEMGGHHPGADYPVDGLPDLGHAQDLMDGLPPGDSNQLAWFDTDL

T3: B-cat-Halo (UniProt P35222 1-781)
T3 sequence (looked up): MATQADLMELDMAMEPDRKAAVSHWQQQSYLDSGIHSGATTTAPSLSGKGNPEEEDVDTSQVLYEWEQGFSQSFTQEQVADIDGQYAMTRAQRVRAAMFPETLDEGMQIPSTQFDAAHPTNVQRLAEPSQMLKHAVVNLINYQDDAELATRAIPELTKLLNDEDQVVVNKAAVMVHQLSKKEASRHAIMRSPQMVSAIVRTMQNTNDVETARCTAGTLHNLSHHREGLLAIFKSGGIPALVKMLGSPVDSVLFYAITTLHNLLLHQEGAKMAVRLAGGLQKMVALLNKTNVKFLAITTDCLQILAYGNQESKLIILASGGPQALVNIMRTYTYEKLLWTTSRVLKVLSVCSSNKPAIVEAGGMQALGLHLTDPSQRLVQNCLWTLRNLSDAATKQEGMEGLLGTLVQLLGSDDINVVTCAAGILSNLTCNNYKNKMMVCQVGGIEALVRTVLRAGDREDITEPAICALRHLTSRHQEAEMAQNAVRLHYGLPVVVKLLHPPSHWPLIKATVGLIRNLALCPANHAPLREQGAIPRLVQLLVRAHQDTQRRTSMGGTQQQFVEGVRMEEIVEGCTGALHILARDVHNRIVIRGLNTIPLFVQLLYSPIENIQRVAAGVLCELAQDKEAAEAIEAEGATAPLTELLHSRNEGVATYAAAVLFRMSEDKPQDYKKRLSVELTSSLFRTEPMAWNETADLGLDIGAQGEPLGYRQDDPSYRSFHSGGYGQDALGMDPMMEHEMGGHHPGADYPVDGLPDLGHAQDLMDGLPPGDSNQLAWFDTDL


Legend:
[1] = target: T1, B-cat-Halo (beta-catenin HaloTag …); assay: cell-based or functional assay
[2] = target: T2, full-length beta-Catenin (Uniprot ID …); assay: fluorescence polarization competition; full-length beta-catenin, competitor 5FAM-TCF4(10-53) probe
How it was run: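 Incubate 60 minutes at 20° C. away from light, then read polarization in duplicate. Fit to 1:1 binding with hill slope.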

B-cat-Halo = target: T3, B-cat-Halo; assay: cell-based or functional assay

Binder | NanoBRET Abs IC50 [1] [µM] | also measured
Ac-[αAllylPro]DL[B5(4)]DEAAFN[S8]F[Bta][dS]-NH2 (staple 1-4, 4-11, Stapled peptide composition) [I-756] |  | EC50 [2]: 56 nM
Ac-[αAllylPro]D[tBuAla][B5(18)]D[GAbu]AAFL[PyrS2(3)][3Thi][Bta]Q-NH2 (staple 1-4, 4-11) [I-1841] | > 20 | 
Ac-[αAllylPro]DL[B5(28)]DEAAFN[S8]F[Bta]S-NH2 (staple 1-4, 4-11, Stapled peptide composition) [I-751] |  | EC50 [2]: 29 nM
Ac-[αAllylPro]DL[B5(4)]DEAAFN[S8]F[Bta][NMeS]-NH2 (staple 1-4, 4-11; also: earlier-eluting HPLC peak (staple isomer), Stapled peptide composition) [I-759] |  | EC50 [2]: 1530 nM
Ac-[αAllylPro]DL[B5″]DEAAFN[S8]F[Bta][NMeS]-NH2 (staple 1-4, 4-11, Stapled peptide composition) [I-760] |  | EC50 [2]: 608 nM
Ac-[αAllylPro]D[tBuAla][B5(3)]D[Phe(3-COOH)]AAFF[PyrS2][3Thi][Bta]Q-NH2 (staple 1-4, 4-11) [I-852] |  | NanoBRET Abs IC50 (B-cat-Halo): 2.8 µM
Ac-[αAllylPro]D[tBuAla][B5(18)]D[GAbu](Ac)AAFL[PyrS2(3)][3Thi][Bta]Q-NH2 (staple 1-4, 4-11; also: double bonds not converted) [I-1840] | 22.3 | 

Further lines, with some results ahead:

NanoBRET Abs IC50 [1] [µM] | Binder | also measured
37.3 | Ac-[αAllylPro]D[tBuAla][B5(18)]D[TfeGA]AAF[TriAzDap](CH2NMe2)[PyrS2(3)][3Thi][Bta]Q-NH2 (staple 1-4, 4-11; not fully specified) [I-1861] | 
3.8 | Ac-[αAllylPro]D[tBuAla][B5(18)]D[Phe(3-COOH)]AAFV[PyrS2(3)][Phe(2-Cl)][Bta]S-NH2 (staple 1-4, 4-11) [I-1850] | 
9.5 | Ac-[αAllylPro]D[tBuAla][B5(18)]D[Dap](2COOH4NO2Ph)AAFL[PyrS2(3)][3Thi][Bta]Q-NH2 (staple 1-4, 4-11) [I-1843] | 
> 20 | Ac-[αAllylPro]D[tBuAla][B5(18)]DC(2COOH4NO2Ph)AAFL[PyrS2(3)][3Thi][Bta]Q-NH2 (staple 1-4, 4-11) [I-1848] | 
16.3 | Ac-[αAllylPro]N[tBuAla][B5(18)]D[Phe(3-COOH)]AAFL[PyrS2(3)][Phe(2-Cl)][Bta]S-NH2 (staple 1-4, 4-11) [I-1853] | 
26.2 | Ac-[HypEs5]D[tBuAla][B5(18)]D[Phe(3-COOH)]AAFL[PyrS2(3)][Phe(2-Cl)][Bta]Q-NH2 (staple 1-4, 4-11) [I-1847] | 
19.3 | Ac-[αAllylPro]D[tBuAla][B5(18)]D[TfeGA]AAF[TriAzDap](CH2NMe2)[PyrS2(3)][3Thi][Bta]Q-NH2 (staple 1-4, 4-11; not fully specified) [I-1862] | 
